Assay results: patent publication US20240287190A1 (THERANOTICS, published 2024)
Read-outs that look alike come from different tables or passages of the source.

Columns and labels:
[1] = biological target: T1, recombinant human TGFβ1 protein (R&D Systems, Cat #7754-BH-025/CF) (human, UniProt P01137 279-390); assay: bridging ELISA on plate-coated TGFβ1, detected with His-tag human B7-H3; paragraph 158 says the mono antibodies are not bound to TGFβ1
T1 construct: Bought protein

[2] = biological target: T1, recombinant human TGFβ1 protein (R&D …); assay: as above; remark: listed apart in the source

T1 sequence (P01137 279-390 limits assumed): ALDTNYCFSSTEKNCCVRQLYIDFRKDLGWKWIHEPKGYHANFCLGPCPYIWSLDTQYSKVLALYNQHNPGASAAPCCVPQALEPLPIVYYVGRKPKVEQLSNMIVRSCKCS

Row | Binder | binding result [1] | binding result [2]
1 | #5 (mono) B7-H3 mono antibody free of TGFβ binding portion (antibody, human IgG1, N297A, V domains shown) VH: EVQLLESGGGLVQPGGSLRLSCAASGFTFSTYAMSWVRQAPGKGLEWVSAISGSGGSTLYADSVKGRFTISRDNSKNTLYLQMNSLRAEDTAVYYCARGGSATWAFDLWGQGTLVTVSS VL: QSVLTQPPSASGTPGQRVTISCSGSSSNIGSNYVYWYQQLPGTAPKLLIYRNNQRPSGVPDRFSGSKSGTSASLAISGLRSEDEADYYCGTWDSSLSGVVFGGGTKLTVL | no binding | –
2 | #6 (mono) B7-H3 mono antibody free of TGFβ binding portion (antibody, human IgG1, N297A, V domains shown) VH: EVQLLESGGGLVQPGGSLRLSCAASGFTFSTYAISWVRQAPGKGLEWVSSIYYSGYTHYNPSLESRFTISRDNSKNTLYLQMNSLRAEDTAVYYCARGYSGWMDVWGQGTLVTVSS VL: QSVLTQPPSASGTPGQRVTISCGGNNIGSKSVHWYQQLPGTAPKLLIYDNNKRPSGVPNRFSGSKSGTSASLAISGLRSEDEADYYCAAWDDSLNVPVFGGGTKLTVL | – | no binding
3 | #8 (mono) B7-H3 mono antibody free of TGFβ binding portion (antibody, human IgG1, N297A, V domains shown) VH: EVQLLESGGGLVQPGSSLRLSCAASGFTFSSYWISWVRQAPGKGLEWVSEISPSGNTNYNPSLKSRFTISRDNSKNTLYLQMNSLRAEDTAVYYCAREVGDLLDYWGQGTLVTVSS VL: QSVLTQPPSASGTPGQRVTISCSGSNIGNNYVSWYQQLPGTAPKLLIYQDSKRPSGVPDRFSGSKSGTSASLAISGLRSEDEADYYCLVWDRSSDHFVFGGGTKLTVL | – | no binding

The next lines start with the values.

Row | binding result [1] | binding result [2] | Binder
4 | – | no binding | #7 (mono) B7-H3 mono antibody free of TGFβ binding portion (antibody, human IgG1, N297A, V domains shown) VH: EVQLLESGGGLVQPGGSLRLSCAASGFTFSNFWIGWVRQAPGKGLEWVSWINPPGSITSYADSVKGRFTISRDNSKDTLYLQMNSLRAEDTAVYYCAREVGDVLDYWGQGTLVTVSS VL: QSVLTQPPSASGTPGQRVTISCTGTSSDIGRYNYVSWYQQLPGTAPKLLIYRNTQRPSGVPDRFSGSKSGTSASLAISGLRSEDEADYYCGTWDSSLNAYVFGGGTKLTVL
5 | – | no binding | #9 (mono) B7-H3 mono antibody free of TGFβ binding portion (antibody, human IgG1, N297A, V domains shown) VH: EVQLLESGGGLVQPGGSLRLSCAASGFTFSSYAMNWVRQAPGKGLEWVSTISGSGGQTYYADSVKGRFTISRDNSKNTLYLQMNSLRAEDTAVYYCARWRSIWAFDYWGQGTLVTVSS VL: QSVLTQPPSASGTPGQRVTISCSDNNIGSKSVHWYQQLPGTAPKLLIYDNNKRPSGVPDRFSGSKSGTSASLAISGLRSEDEADYYCGTWDDSLSGPVFGGGTKLTVL
